In PMC9757750 (Science Advances, 2022):

Experiments:
[1] = target: Flag-LegA15 used in the GST pulldown of Fig. 2E (Legionella pneumophila Philadelphia, UniProt Q5ZSR1); experiment: pull-down; details: both partners purified
[2] = target: 6×His-LegA15, full-length (Legionella pneumophila Philadelphia, UniProt Q5ZSR1 1-471); experiment: pull-down; details: both partners purified

B1: GST-p115 (1 to 651), ND (domain or fragment, human, UniProt O60763 1-651, looked up)
chain: MNFLRGVMGGQSAGPQHTEAETIQKLCDRVASSTLLDDRRNAVRALKSLSKKYRLEVGIQAMEHLIHVLQTDRSDSEIIGYALDTLYNIISNEEEEEVEENSTRQSEDLGSQFTEIFIKQQENVTLLLSLLEEFDFHVRWPGVKLLTSLLKQLGPQVQQIILVSPMGVSRLMDLLADSREVIRNDGVLLLQALTRSNGAIQKIVAFENAFERLLDIISEEGNSDGGIVVEDCLILLQNLLKNNNSNQNFFKEGSYIQRMKPWFEVGDENSGWSAQKVTNLHLMLQLVRVLVSPTNPPGATSSCQKAMFQCGLLQQLCTILMATGVPADILTETINTVSEVIRGCQVNQDYFASVNAPSNPPRPAIVVLLMSMVNERQPFVLRCAVLYCFQCFLYKNQKGQGEIVSTLLPSTIDATGNSVSAGQLLCGGLFSTDSLSNWCAAVALAHALQENATQKEQLLRVQLATSIGNPPVSLLQQCTNILSQGSKIQTRVGLLMLLCTWLSNCPIAVTHFLHNSANVPFLTGQIAENLGEEEQLVQGLCALLLGISIYFNDNSLESYMKEKLKQLIEKRIGKENFIEKLGFISKHELYSRASQKPQPNFPSPEYMIFDHEFTKLVKELEGVITKAIYKSSEEDKKEEEVKKTLEQHDNI
notes: also called N-terminal ARM domain; globular head
binding result [1]: binds | binding result [2]: binds
